Results published in patent US20260055162A1.

Experiments:
Assay in all cases: cell-based or functional assay
[1] = molecular target: AA-TGFB-083 (TGFB-083), TGF-BR2 ECD-NKp44 TM-NKp44 ICD
[2] = molecular target: AA-TGFB-077 (TGFB-077), TGF-BR2 ECD-GCSFR TM-GCSFR ICD
[3] = molecular target: AA-TGFB-061 (TGFB-061), TGF-BR2 ECD-CD28 Long TM-TRAF3 ICD
[4] = molecular target: AA-TGFB-072 (TGFB-072), TGF-BR2 ECD-SLAMF6 TM-SLAMF6 ICD
[5] = molecular target: AA-TGFB-096 (TGFB-096), TGF-BR2 ECD-CD28 Long TM-Fgr ICD
[6] = molecular target: AA-TGFB-075 (TGFB-075), TGF-BR2 ECD-SLAMF3 TM-SLAMF3 ICD
AA-TGFB-075 (TGFB-075), TGF-BR2 ECD-SLAMF3 TM-SLAMF3 ICD, sequence (chain, as listed by the source limits assumed, form in doubt): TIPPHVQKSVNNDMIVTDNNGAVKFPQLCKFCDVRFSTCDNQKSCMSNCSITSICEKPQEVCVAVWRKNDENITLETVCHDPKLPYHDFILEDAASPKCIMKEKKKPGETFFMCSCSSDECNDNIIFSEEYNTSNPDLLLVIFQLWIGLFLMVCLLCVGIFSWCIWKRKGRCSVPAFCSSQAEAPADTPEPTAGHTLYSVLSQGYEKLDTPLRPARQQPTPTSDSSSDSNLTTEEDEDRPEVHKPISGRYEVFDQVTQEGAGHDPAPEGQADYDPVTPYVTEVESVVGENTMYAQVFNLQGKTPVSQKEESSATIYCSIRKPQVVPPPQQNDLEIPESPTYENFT

[7] = molecular target: AA-TGFB-057 (TGFB-057), TGF-BR2 ECD-CD28 Long TM-MYD88 ICD
AA-TGFB-057 (TGFB-057), TGF-BR2 ECD-CD28 Long TM-MYD88 ICD, sequence (chain, as listed by the source limits assumed, form in doubt): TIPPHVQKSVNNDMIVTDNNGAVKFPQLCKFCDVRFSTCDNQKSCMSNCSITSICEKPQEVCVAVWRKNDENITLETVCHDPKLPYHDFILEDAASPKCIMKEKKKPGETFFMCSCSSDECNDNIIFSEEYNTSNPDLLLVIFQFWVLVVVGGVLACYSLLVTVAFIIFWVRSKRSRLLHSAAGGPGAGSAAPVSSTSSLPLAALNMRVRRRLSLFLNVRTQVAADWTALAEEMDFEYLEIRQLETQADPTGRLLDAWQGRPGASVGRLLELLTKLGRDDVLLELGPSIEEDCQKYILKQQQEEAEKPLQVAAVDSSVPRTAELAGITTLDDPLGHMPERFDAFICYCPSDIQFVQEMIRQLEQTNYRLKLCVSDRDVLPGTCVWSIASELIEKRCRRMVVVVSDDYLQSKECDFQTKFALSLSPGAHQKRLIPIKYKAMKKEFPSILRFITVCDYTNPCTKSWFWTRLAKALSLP

[8] = molecular target: AA-TGFB-082 (TGFB-082), TGF-BR2 ECD-NKp46 TM-NKp46 ICD
AA-TGFB-082 (TGFB-082), TGF-BR2 ECD-NKp46 TM-NKp46 ICD, sequence (chain, as listed by the source limits assumed, form in doubt): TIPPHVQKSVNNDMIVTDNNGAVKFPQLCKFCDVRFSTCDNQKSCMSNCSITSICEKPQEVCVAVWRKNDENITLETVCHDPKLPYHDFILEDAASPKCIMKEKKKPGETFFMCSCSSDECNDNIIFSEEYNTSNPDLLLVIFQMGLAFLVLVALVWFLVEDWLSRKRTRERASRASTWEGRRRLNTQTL

[9] = molecular target: AA-TGFB-068 (TGFB-068), TGF-BR2 ECD-FCGR3A TM-FCGR3A ICD
AA-TGFB-068 (TGFB-068), TGF-BR2 ECD-FCGR3A TM-FCGR3A ICD, sequence (chain, as listed by the source limits assumed, form in doubt): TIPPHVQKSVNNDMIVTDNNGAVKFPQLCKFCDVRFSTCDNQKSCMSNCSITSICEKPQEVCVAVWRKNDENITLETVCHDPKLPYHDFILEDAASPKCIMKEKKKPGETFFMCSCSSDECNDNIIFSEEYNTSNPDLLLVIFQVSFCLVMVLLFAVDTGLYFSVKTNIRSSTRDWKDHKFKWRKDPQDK

[10] = molecular target: AA-TGFB-079 (TGFB-079), TGF-BR2 ECD-FGFR1 TM-FGFR1 ICD
[11] = molecular target: AA-TGFB-088 (TGFB-088), TGF-BR2 ECD-DR3 TM-DR3 ICD
[12] = molecular target: AA-TGFB-073 (TGFB-073), TGF-BR2 ECD-SLAMF7 TM-SLAMF7 ICD
AA-TGFB-073 (TGFB-073), TGF-BR2 ECD-SLAMF7 TM-SLAMF7 ICD, sequence (chain, as listed by the source limits assumed, form in doubt): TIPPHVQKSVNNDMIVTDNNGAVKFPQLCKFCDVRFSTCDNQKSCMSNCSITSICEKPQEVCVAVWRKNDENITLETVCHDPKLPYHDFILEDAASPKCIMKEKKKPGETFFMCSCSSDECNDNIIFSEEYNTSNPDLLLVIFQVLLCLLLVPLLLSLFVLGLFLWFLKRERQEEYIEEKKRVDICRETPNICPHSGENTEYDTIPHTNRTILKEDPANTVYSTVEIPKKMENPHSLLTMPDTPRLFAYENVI

[13] = molecular target: AA-TGFB-019 (TGFB-019), TGF-BR2 ECD-CD28 TM-CD28 ICD
AA-TGFB-019 (TGFB-019), TGF-BR2 ECD-CD28 TM-CD28 ICD, sequence (chain, as listed by the source limits assumed, form in doubt): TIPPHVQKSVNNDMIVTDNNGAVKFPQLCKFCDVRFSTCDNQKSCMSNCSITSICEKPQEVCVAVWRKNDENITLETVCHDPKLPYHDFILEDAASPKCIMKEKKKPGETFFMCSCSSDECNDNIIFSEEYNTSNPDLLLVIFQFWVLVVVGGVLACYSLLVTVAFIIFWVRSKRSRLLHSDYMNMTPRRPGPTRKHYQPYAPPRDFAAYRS

[14] = molecular target: AA-TGFB-021 (TGFB-021), TGF-BR2 ECD-CD28 TM-CD3z ICD
AA-TGFB-021 (TGFB-021), TGF-BR2 ECD-CD28 TM-CD3z ICD, sequence (chain, as listed by the source limits assumed, form in doubt): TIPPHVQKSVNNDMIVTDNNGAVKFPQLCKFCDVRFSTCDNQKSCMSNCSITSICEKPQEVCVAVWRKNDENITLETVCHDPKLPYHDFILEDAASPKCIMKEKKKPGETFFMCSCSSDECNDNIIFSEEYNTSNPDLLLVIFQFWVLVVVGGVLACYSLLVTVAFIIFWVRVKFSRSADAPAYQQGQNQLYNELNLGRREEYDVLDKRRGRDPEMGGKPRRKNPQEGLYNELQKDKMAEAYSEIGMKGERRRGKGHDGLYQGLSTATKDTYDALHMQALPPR

[15] = molecular target: AA-TGFB-058 (TGFB-058), TGF-BR2 ECD-DAP12 TM-DAP12 ICD
AA-TGFB-058 (TGFB-058), TGF-BR2 ECD-DAP12 TM-DAP12 ICD, sequence (chain, as listed by the source limits assumed, form in doubt): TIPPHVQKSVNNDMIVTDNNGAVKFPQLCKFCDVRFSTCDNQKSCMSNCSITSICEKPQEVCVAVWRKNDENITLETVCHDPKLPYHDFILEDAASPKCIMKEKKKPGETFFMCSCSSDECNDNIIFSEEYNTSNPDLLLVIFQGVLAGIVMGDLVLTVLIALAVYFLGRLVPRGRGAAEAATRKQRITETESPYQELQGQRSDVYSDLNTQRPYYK

[16] = molecular target: AA-TGFB-051 (TGFB-051), TGF-BR2 ECD-CD28 TM-DAP10v2 ICD
AA-TGFB-051 (TGFB-051), TGF-BR2 ECD-CD28 TM-DAP10v2 ICD, sequence (chain, as listed by the source limits assumed, form in doubt): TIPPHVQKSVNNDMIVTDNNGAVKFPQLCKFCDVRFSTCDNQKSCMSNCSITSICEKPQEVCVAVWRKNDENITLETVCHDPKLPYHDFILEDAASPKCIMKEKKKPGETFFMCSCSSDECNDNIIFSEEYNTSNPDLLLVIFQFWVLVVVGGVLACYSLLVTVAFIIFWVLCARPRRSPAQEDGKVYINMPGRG

[17] = molecular target: AA-TGFB-074 (TGFB-074), TGF-BR2 ECD-LFA2 TM-LFA2 ICD
AA-TGFB-074 (TGFB-074), TGF-BR2 ECD-LFA2 TM-LFA2 ICD, sequence (chain, as listed by the source limits assumed, form in doubt): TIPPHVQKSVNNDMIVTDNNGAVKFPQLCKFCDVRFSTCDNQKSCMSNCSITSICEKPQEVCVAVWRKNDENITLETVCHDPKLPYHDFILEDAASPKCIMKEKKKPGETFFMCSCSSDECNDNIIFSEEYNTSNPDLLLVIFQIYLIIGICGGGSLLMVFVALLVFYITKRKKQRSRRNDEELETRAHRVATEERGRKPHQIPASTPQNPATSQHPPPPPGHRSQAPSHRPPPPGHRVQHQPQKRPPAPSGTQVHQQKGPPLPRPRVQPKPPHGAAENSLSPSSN

[18] = molecular target: AA-TGFB-087 (TGFB-087), TGF-BR2 ECD-TLR4 TM-TLR4 ICD
[19] = molecular target: AA-TGFB-076 (TGFB-076), TGF-BR2 ECD-EPOR TM-EPOR ICD
AA-TGFB-076 (TGFB-076), TGF-BR2 ECD-EPOR TM-EPOR ICD, sequence (chain, as listed by the source limits assumed, form in doubt): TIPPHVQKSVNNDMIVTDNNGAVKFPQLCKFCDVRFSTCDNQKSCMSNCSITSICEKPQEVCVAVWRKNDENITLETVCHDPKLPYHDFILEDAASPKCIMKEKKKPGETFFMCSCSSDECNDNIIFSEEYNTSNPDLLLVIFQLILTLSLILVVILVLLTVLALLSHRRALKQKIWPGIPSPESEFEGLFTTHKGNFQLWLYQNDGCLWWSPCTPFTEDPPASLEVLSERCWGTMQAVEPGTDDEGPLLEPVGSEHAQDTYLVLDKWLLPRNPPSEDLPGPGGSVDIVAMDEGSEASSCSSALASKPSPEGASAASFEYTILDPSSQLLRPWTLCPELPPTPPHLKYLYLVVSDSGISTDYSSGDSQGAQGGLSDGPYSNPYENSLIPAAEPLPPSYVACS

[20] = molecular target: AA-TGFB-071 (TGFB-071), TGF-BR2 ECD-SLAMF5 TM-SLAMF5 ICD
[21] = molecular target: AA-TGFB-080 (TGFB-080), TGF-BR2 ECD-DNAM1 TM-DNAM1 ICD
AA-TGFB-080 (TGFB-080), TGF-BR2 ECD-DNAM1 TM-DNAM1 ICD, sequence (chain, as listed by the source limits assumed, form in doubt): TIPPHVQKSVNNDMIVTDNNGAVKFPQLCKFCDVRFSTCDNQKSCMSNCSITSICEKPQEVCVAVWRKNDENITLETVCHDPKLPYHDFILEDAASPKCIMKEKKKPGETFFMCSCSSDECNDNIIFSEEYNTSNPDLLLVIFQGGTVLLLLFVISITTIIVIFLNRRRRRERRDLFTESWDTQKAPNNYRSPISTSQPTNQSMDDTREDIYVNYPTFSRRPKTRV

[22] = molecular target: AA-TGFB-081 (TGFB-081), TGF-BR2 ECD-ICOS TM-ICOS ICD
AA-TGFB-081 (TGFB-081), TGF-BR2 ECD-ICOS TM-ICOS ICD, sequence (chain, as listed by the source limits assumed, form in doubt): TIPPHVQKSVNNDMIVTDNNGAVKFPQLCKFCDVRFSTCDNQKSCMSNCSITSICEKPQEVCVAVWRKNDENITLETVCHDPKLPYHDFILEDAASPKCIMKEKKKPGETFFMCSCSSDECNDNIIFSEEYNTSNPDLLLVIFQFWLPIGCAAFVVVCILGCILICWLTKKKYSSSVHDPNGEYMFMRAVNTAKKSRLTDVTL

[23] = molecular target: AA-TGFB-086 (TGFB-086), TGF-BR2 ECD-CD28 Long TM-IRAK4 ICD
AA-TGFB-086 (TGFB-086), TGF-BR2 ECD-CD28 Long TM-IRAK4 ICD, sequence (chain, as listed by the source limits assumed, form in doubt): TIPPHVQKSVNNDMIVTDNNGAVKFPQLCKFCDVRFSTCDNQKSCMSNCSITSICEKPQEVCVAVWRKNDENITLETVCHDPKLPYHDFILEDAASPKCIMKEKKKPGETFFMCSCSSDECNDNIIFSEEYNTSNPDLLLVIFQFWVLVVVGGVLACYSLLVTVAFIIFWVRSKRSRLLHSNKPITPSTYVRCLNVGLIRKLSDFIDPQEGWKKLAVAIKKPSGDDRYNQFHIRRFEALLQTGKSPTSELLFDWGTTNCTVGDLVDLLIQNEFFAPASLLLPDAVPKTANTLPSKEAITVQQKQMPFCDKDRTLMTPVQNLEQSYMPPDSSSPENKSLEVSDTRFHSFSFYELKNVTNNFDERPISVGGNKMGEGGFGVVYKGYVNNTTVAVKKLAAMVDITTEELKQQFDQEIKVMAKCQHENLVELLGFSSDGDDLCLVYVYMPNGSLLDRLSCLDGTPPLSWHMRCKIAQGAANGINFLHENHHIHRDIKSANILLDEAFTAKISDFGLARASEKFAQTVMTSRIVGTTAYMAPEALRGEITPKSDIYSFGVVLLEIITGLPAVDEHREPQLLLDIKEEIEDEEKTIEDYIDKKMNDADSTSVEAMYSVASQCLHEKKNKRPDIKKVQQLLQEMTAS

AA-TGFB-077 (TGFB-077), TGF-BR2 ECD-GCSFR TM-GCSFR ICD, sequence (chain, as listed by the source limits assumed, form in doubt): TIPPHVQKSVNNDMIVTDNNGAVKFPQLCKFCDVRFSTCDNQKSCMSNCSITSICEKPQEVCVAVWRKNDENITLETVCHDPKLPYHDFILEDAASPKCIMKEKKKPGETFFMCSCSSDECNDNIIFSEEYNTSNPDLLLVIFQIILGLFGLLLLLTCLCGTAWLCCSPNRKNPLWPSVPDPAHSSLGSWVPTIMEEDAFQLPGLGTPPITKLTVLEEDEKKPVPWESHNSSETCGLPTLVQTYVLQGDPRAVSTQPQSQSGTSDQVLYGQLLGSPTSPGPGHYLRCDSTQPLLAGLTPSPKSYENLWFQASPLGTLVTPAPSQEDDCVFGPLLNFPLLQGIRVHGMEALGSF
AA-TGFB-083 (TGFB-083), TGF-BR2 ECD-NKp44 TM-NKp44 ICD, sequence (chain, as listed by the source limits assumed, form in doubt): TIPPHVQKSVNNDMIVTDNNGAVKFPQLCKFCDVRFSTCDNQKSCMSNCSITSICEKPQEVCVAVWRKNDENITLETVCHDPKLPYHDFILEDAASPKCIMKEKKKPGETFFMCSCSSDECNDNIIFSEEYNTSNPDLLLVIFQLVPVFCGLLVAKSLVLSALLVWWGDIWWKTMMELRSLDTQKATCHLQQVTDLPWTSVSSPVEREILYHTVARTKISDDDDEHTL
recombinant TGF-B1 cytokine, sequence (P01137 279-390 limits assumed): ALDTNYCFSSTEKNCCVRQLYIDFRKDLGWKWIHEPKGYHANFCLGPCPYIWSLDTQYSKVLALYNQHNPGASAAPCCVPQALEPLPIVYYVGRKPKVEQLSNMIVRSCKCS

Substance: recombinant TGF-B1 cytokine (from UniProt P01137 279-390) (ligand)
- 5-Day Fold Expansion of NK cells, 10 ng/mL TGF-B1 [1]: 2.08 fold
- Average % Killing (SKOV-3), 10 ng/mL TGF-B1 [1]: 14.1%
- Average IFNg Secretion, 10 ng/mL TGF-B1 [1]: 3960 pg/mL
- Average IP-10 Secretion, 10 ng/mL TGF-B1 [1]: 968
- 5-Day Fold Expansion of NK cells, 10 ng/mL TGF-B1 [2]: 2.52 fold
- Average % Killing (SKOV-3), 10 ng/mL TGF-B1 [2]: 14.4%
- Average IFNg Secretion, 10 ng/mL TGF-B1 [2]: 6640 pg/mL
- Average IP-10 Secretion, 10 ng/mL TGF-B1 [2]: 1410
- 5-Day Fold Expansion of NK cells, 10 ng/mL TGF-B1 [3]: 1.29 fold
- Average % Killing (SKOV-3), 10 ng/mL TGF-B1 [3]: 8.9%
- Average IFNg Secretion, 10 ng/mL TGF-B1 [3]: 3090 pg/mL
- Average IP-10 Secretion, 10 ng/mL TGF-B1 [3]: 762
- 5-Day Fold Expansion of NK cells, 10 ng/mL TGF-B1 [4]: 3.89 fold
- Average % Killing (SKOV-3), 10 ng/mL TGF-B1 [4]: 15%
- Average IFNg Secretion, 10 ng/mL TGF-B1 [4]: 8700 pg/mL
- Average IP-10 Secretion, 10 ng/mL TGF-B1 [4]: 1880
- 5-Day Fold Expansion of NK cells, 10 ng/mL TGF-B1 [5]: 1 fold
- Average % Killing (SKOV-3), 10 ng/mL TGF-B1 [5]: 16%
- Average IFNg Secretion, 10 ng/mL TGF-B1 [5]: > 9000 pg/mL
- Average IP-10 Secretion, 10 ng/mL TGF-B1 [5]: 2330
- 5-Day Fold Expansion of NK cells, 10 ng/mL TGF-B1 [6]: 3.86 fold
- Average % Killing (SKOV-3), 10 ng/mL TGF-B1 [6]: 9.64%
- Average IFNg Secretion, 10 ng/mL TGF-B1 [6]: 4420 pg/mL
- Average IP-10 Secretion, 10 ng/mL TGF-B1 [6]: 1040
- 5-Day Fold Expansion of NK cells, 10 ng/mL TGF-B1 [7]: 1.02 fold
- Average % Killing (SKOV-3), 10 ng/mL TGF-B1 [7]: 11.2%
- Average IFNg Secretion, 10 ng/mL TGF-B1 [7]: 7770 pg/mL
- Average IP-10 Secretion, 10 ng/mL TGF-B1 [7]: 2760
- 5-Day Fold Expansion of NK cells, 10 ng/mL TGF-B1 [8]: 3.26 fold
- Average % Killing (SKOV-3), 10 ng/mL TGF-B1 [8]: 20.4%
- Average IFNg Secretion, 10 ng/mL TGF-B1 [8]: 7170 pg/mL
- Average IP-10 Secretion, 10 ng/mL TGF-B1 [8]: 1350
- 5-Day Fold Expansion of NK cells, 10 ng/mL TGF-B1 [9]: 1.55 fold
- Average % Killing (SKOV-3), 10 ng/mL TGF-B1 [9]: 8.25%
- Average IFNg Secretion, 10 ng/mL TGF-B1 [9]: 2820 pg/mL
- Average IP-10 Secretion, 10 ng/mL TGF-B1 [9]: 686
- 5-Day Fold Expansion of NK cells, 10 ng/mL TGF-B1 [10]: 1.49 fold
- Average % Killing (SKOV-3), 10 ng/mL TGF-B1 [10]: 9.28%
- Average IFNg Secretion, 10 ng/mL TGF-B1 [10]: 3580 pg/mL
- Average IP-10 Secretion, 10 ng/mL TGF-B1 [10]: 685
- 5-Day Fold Expansion of NK cells, 10 ng/mL TGF-B1 [11]: 0.66 fold
- Average % Killing (SKOV-3), 10 ng/mL TGF-B1 [11]: 2.23%
- 5-Day Fold Expansion of NK cells, 10 ng/mL TGF-B1 [12]: 3.08 fold
- Average % Killing (SKOV-3), 10 ng/mL TGF-B1 [12]: 13.1%
- Average IFNg Secretion, 10 ng/mL TGF-B1 [12]: 6910 pg/mL
- Average IP-10 Secretion, 10 ng/mL TGF-B1 [12]: 1420
- 5-Day Fold Expansion of NK cells, 10 ng/mL TGF-B1 [13]: 1.99 fold
- Average % Killing (SKOV-3), 10 ng/mL TGF-B1 [13]: 21.1%
- Average IFNg Secretion, 10 ng/mL TGF-B1 [13]: 6700 pg/mL
- Average IP-10 Secretion, 10 ng/mL TGF-B1 [13]: 1170
- 5-Day Fold Expansion of NK cells, 10 ng/mL TGF-B1 [14]: 0.45 fold
- Average % Killing (SKOV-3), 10 ng/mL TGF-B1 [14]: 2.26%
- CD69, fold-change of MFI over no stimulation, High (0.05 ug/mL) [14]: 93 fold
- CD69, fold-change of MFI over no stimulation, Low (0.002 ug/mL) [14]: 21.5 fold
- CD69, fold-change of MFI over no stimulation, Med. (0.01 ug/mL) [14]: 62.2 fold
- GFP, fold-change of MFI over no stimulation, High (0.05 ug/mL) [14]: 10.1 fold
- GFP, fold-change of MFI over no stimulation, Low (0.002 ug/mL) [14]: 2.8 fold
- GFP, fold-change of MFI over no stimulation, Med. (0.01 ug/mL) [14]: 9.3 fold
- 5-Day Fold Expansion of NK cells, 10 ng/mL TGF-B1 [15]: 1.76 fold
- Average % Killing (SKOV-3), 10 ng/mL TGF-B1 [15]: 8.35%
- Average IFNg Secretion, 10 ng/mL TGF-B1 [15]: 2360 pg/mL
- Average IP-10 Secretion, 10 ng/mL TGF-B1 [15]: 837
- 5-Day Fold Expansion of NK cells, 10 ng/mL TGF-B1 [16]: 1.42 fold
- Average % Killing (SKOV-3), 10 ng/mL TGF-B1 [16]: 11.4%
- Average IFNg Secretion, 10 ng/mL TGF-B1 [16]: 4200 pg/mL
- Average IP-10 Secretion, 10 ng/mL TGF-B1 [16]: 671
- 5-Day Fold Expansion of NK cells, 10 ng/mL TGF-B1 [17]: 2.4 fold
- Average % Killing (SKOV-3), 10 ng/mL TGF-B1 [17]: 11.2%
- Average IFNg Secretion, 10 ng/mL TGF-B1 [17]: 5730 pg/mL
- Average IP-10 Secretion, 10 ng/mL TGF-B1 [17]: 1170
- 5-Day Fold Expansion of NK cells, 10 ng/mL TGF-B1 [18]: 2.51 fold
- Average % Killing (SKOV-3), 10 ng/mL TGF-B1 [18]: 11.9%
- Average IFNg Secretion, 10 ng/mL TGF-B1 [18]: 6060 pg/mL
- Average IP-10 Secretion, 10 ng/mL TGF-B1 [18]: 1260
- 5-Day Fold Expansion of NK cells, 10 ng/mL TGF-B1 [19]: 2.94 fold
- Average % Killing (SKOV-3), 10 ng/mL TGF-B1 [19]: 14.3%
- Average IFNg Secretion, 10 ng/mL TGF-B1 [19]: 6650 pg/mL
- Average IP-10 Secretion, 10 ng/mL TGF-B1 [19]: 1340
- 5-Day Fold Expansion of NK cells, 10 ng/mL TGF-B1 [20]: 3.06 fold
- Average % Killing (SKOV-3), 10 ng/mL TGF-B1 [20]: 18.8%
- Average IFNg Secretion, 10 ng/mL TGF-B1 [20]: > 9000 pg/mL
- Average IP-10 Secretion, 10 ng/mL TGF-B1 [20]: 2300
- 5-Day Fold Expansion of NK cells, 10 ng/mL TGF-B1 [21]: 2.11 fold
- Average % Killing (SKOV-3), 10 ng/mL TGF-B1 [21]: 10.8%
- Average IFNg Secretion, 10 ng/mL TGF-B1 [21]: 4380 pg/mL
- Average IP-10 Secretion, 10 ng/mL TGF-B1 [21]: 1230
- 5-Day Fold Expansion of NK cells, 10 ng/mL TGF-B1 [22]: 2.31 fold
- Average % Killing (SKOV-3), 10 ng/mL TGF-B1 [22]: 18.8%
- Average IFNg Secretion, 10 ng/mL TGF-B1 [22]: > 9000 pg/mL
- Average IP-10 Secretion, 10 ng/mL TGF-B1 [22]: 2180
- 5-Day Fold Expansion of NK cells, 10 ng/mL TGF-B1 [23]: 1.76 fold
- Average % Killing (SKOV-3), 10 ng/mL TGF-B1 [23]: 7.83%
- Average IFNg Secretion, 10 ng/mL TGF-B1 [23]: 3150 pg/mL
- Average IP-10 Secretion, 10 ng/mL TGF-B1 [23]: 938
